Tests used:
[1] = ELISA PEG binding of h6.3 BsAbs; details: FIG. 14A
Procedure: […] The plates were washed with PBS-T (PBS containing 0.05% Tween-20) three times. Rabbit anti-6×His (2 μg/mL) supplemented with HRP-conjugated goat anti-rabbit (2 μg/mL) or HRP-conjugated goat Ig anti human IgG Fab (2 μg/mL) (Jackson ImmunoResearch Laboratories, West Grove, Pa.) in 50 μL dilution buffer were added for 1 h at room temperature. The plates were washed with PBS-T (PBS containing 0.05% Tween-20) three times and with PBS two times. Bound peroxidase activity was measured by adding 150 μL/well ABTS substrate solution (BioLegend, San Diego, Calif.) for 30 min at room temperature. The absorbance (405 nm) of wells was measured in a microplate reader (Molecular Device, Menlo Park, Calif.).
The PEG-binding kinetics of h6-3Fab×EGFR and h6.3Fab×CD19 BsAbs were verified by Microscale Thermophoresis (MST) (FIGS. 14D and 14E).

Raji cells (CD19+) = test: Flow cytometry: BsAb-directed PEG-liposome Texas Red / PEG-Qdot655 on cells; assay type: cell-based; details: PEG-liposome Texas Red and PEG-Qdot655, 10 μg/mL BsAb
Procedure: PEG2×TAG72 or control PEG2×DNS BsAbs (10 μg/mL) were incubated with A-375 (TAG72−), MCF-7 (TAG72+), Jurkat (TAG72+) or OVCAR-3 (TAG72+) cells at 4° C. for 30 min followed by FITC-labeled goat anti-human immunoglobulin second antibody (2 μg/mL) (Jackson ImmunoResearch Laboratories, West Grove, Pa.) or FITC-labeled 4arm-PEG (2 μg/mL). Tumor-specific targeting of PEGylated compounds was also examined by staining A431 (EGFR^high), and Raji (CD19^high) cell lines with 10 μg/mL of h6.3Fab×EGFR or h6.3Fab×CD19 BsAbs in PBS containing 0.05% BSA (staining buffer) at 4° C. for 30 min. The cells were washed with cold PBS for 3 times. PEG-Qdot655 (8 nM) (Invitrogen, Grand Island, N.Y.) or PEG-liposomal Texas-Red (100 nm size, 50 μM, lipid conc.) (FormuMax Scientific, Palo Alto, Calif.) in staining buffer was added to cells for 30 min at 4° C. Raji cells (CD19+) or SKBR3 cells (HER2+) were incubated with 10 μg/ml h15-2b-knob/BU12-hole, h15-2b-knob/anti-Her2-hole, h6-3-knob/BU12-hole or h6-3-knob/anti-Her2-hole BsAbs, washed and incubated with 0.25 μg/ml FITC-labeled goat anti-human IgG or 10 nM methoxy-PEG Qdot 655 at 4° C. for 30 min. After washing with cold PBS, the surface fluorescence of 10^4 viable cells was measured by FACScaliber flow cytometer (Becton Dickinson, Mountain View, Calif., USA) then analyzed with Flowjo (Tree Star Inc., San Carlos, Calif., USA). […]

Raji (CD19+) cells = test: Cytotoxicity assay of Doxisome with h6.3 BsAbs (3H-thymidine); assay type: cell-based; details: compared with Doxisome alone
Procedure: A431 (EGFR^high) and Raji (CD19^high) cells (5000 cells/well) were seeded in 96-well plates overnight. Fifteen microgram per mL of h6.3Fab×EGFR or h6.3Fab×CD19 BsAbs were added to the cells for 30 min at 37° C. and followed by graded concentrations of free doxorubicin or PEGylated liposomal doxorubicin (Doxisome®, Taiwan Liposome Company Ltd., Taipei, Taiwan) was added to the cells in triplicate at 37° C. for 4 h. The cells were subsequently washed once and incubated for an additional 48 h in fresh culture medium and then pulsed for 16 h with ^3H-thymidine (1 μCi/well). Results are expressed as percent inhibition of ^3H-thymidine incorporation into cellular DNA in comparison to untreated cells.
Next, the ability of whether h6.3Fab×CD19 and h6.3Fab×EGFR BsAbs could increase the cytotoxicity of the drug-loaded nanoparticles (NPs) to antigen-positive cancer cells was investigated. Raji (CD19+) and A431 (EGFR+) cells were incubated with h6.3Fab×CD19 and h6.3Fab×EGFR, followed by the addition of graded concentrations of Doxisome (i.e., PEGylated liposomal doxorubicin).

BSA = BSA (Bos taurus, UniProt P02769); test: ELISA antigen binding of BsAbs, control protein
Procedure: (§1) The anti-PEG binding specificity of BsAbs was measured by adding graded concentrations of PEG2×TAG72, PEG2×DNS, hCC49 scFv, h6.3Fab×EGFR or h6.3Fab×CD19 in 50 μL 2% skim milk to the mucin, BSA-PEG5000, NH2-PEG3k-NH2 or BSA coated plates at RT for 1 h. The plates were washed with PBS-T (PBS containing 0.05% Tween-20) three times. Rabbit anti-6×His (2 μg/mL) supplemented with HRP-conjugated goat anti-rabbit (2 μg/mL) or HRP-conjugated goat Ig anti human IgG Fab (2 μg/mL) (Jackson ImmunoResearch Laboratories, West Grove, Pa.) in 50 μL dilution buffer were added for 1 h at room temperature. The plates were washed with PBS-T (PBS containing 0.05% Tween-20) three times and with PBS two times. Bound peroxidase activity was measured by adding 150 μL/well ABTS substrate solution (BioLegend, San Diego, Calif.) for 30 min at room temperature. The absorbance (405 nm) of wells was measured in a microplate reader (Molecular Device, Menlo Park, Calif.).
Binding of the BsAbs was detected by ELISA. Microtiter plates were first coated with antigens and then PEG2×TAG72, PEG2×DNS BsAbs or hCC49 (anti-TAG72) single chain antibody was added. After the plates were extensively washed to remove unbound antibodies, the remaining bound antibodies in each well were detected with HRP-conjugated secondary antibody. […] In sum, PEG2×TAG72 anti-PEG (hE11) BsAb of example 1.2 can bind both PEG and tumor antigens. […]

A431 (EGFR+) tumor cells = test: Confocal live cell imaging of PEG-Qdot655 internalization; assay type: cell-based, human; details: 10 μg/mL BsAb, 16 nM PEG-Qdot655
Procedure: The coverslips (30 mm) in POC chambers were coated with 10 μg/mL poly-L-lysine in PBS for 30 min at room temperature. The coverslips were washed twice with PBS and then 5×10^4 cells/chamber of A431 (EGFR+) tumor cells were seeded on the coverslips. A431 cells were incubated with 10 μg/mL of h6.3Fab×EGFR or h6.3Fab×CD19 BsAbs at 37° C. for 30 min containing 1 μg/mL of Hoechst 33342 and 100 nM of LysoTracker® Red DND-99 (Invitrogen Life Technologies Corporation, NY, USA). The cells were washed with culture medium for 2 times. Cell imaging was recorded with an Axiovert 200M Confocal Microscope (Carl Ziess Inc., Thornwood, N.Y.) after adding 16 nM of PEG-Qdot655 solution (Invitrogen Life Technologies Corporation, NY, USA).
To verify whether BsAb-targeted substance could be internalized by antigen-positive cancer cells, live cell imaging was performed by staining cells with lysosome tracker and BsAbs, followed by the addition and incubation of PEG-Qdot655.

[2] = system: Jurkat T cells (Tag-72 positive); test: Cancer cell selectivity of hE11 BsAbs (surface immunofluorescence); assay type: cell-based, human; details: culture medium, FIG. 10
Procedure: PEG2×TAG72 or control PEG2×DNS BsAbs (10 μg/mL) were incubated with A-375 (TAG72−), MCF-7 (TAG72+), Jurkat (TAG72+) or OVCAR-3 (TAG72+) cells at 4° C. for 30 min followed by FITC-labeled goat anti-human immunoglobulin second antibody (2 μg/mL) (Jackson ImmunoResearch Laboratories, West Grove, Pa.) or FITC-labeled 4arm-PEG (2 μg/mL). Tumor-specific targeting of PEGylated compounds was also examined by staining A431 (EGFR^high), and Raji (CD19^high) cell lines with 10 μg/mL of h6.3Fab×EGFR or h6.3Fab×CD19 BsAbs in PBS containing 0.05% BSA (staining buffer) at 4° C. for 30 min. The cells were washed with cold PBS for 3 times. […] After washing with cold PBS, the surface fluorescence of 10^4 viable cells was measured by FACScaliber flow cytometer (Becton Dickinson, Mountain View, Calif., USA) then analyzed with Flowjo (Tree Star Inc., San Carlos, Calif., USA). […]
The binding specificity of monovalent BsAbs with their target proteins was measured by collecting the culture medium of BsAbs producing cells, adding the collected medium to cells that expressed the target protein, then determining the binding by ELSA. After washing the cells, the bound BsAbs were detected by FITC-labeled goat anti-human immunoglobulin second antibody. […]

[3] = system: mucin (TAG-72 tumor antigen); test: ELISA antigen binding of hE11 BsAbs; details: FIG. 6A
Procedure: as §1
Binding of the BsAbs was detected by ELISA. Microtiter plates were first coated with antigens and then PEG2×TAG72, PEG2×DNS BsAbs or hCC49 (anti-TAG72) single chain antibody was added. After the plates were extensively washed to remove unbound antibodies, the remaining bound antibodies in each well were detected with HRP-conjugated secondary antibody. […] In sum, PEG2×TAG72 anti-PEG (hE11) BsAb of example 1.2 can bind both PEG and tumor antigens.

Chain of BSA (P02769 25-607): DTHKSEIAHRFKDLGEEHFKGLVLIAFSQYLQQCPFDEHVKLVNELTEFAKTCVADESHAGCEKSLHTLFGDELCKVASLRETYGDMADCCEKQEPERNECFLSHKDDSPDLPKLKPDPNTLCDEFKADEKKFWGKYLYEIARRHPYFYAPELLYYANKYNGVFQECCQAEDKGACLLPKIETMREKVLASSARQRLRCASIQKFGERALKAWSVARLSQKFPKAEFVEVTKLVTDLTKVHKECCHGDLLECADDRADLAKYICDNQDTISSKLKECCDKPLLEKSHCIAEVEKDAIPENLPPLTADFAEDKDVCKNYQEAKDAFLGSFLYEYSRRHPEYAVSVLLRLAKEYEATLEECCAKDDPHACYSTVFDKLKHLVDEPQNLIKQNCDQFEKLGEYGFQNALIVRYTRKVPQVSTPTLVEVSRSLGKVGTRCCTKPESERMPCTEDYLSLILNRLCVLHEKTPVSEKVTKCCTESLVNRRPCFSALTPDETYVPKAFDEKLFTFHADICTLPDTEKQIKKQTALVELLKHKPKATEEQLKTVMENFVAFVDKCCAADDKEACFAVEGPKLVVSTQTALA

B1: h6.3Fab×CD19: monovalent humanized anti-PEG h6.3 Fab fused to hBU12 anti-CD19 dsFv; SEQ ID NO 9, 10, 4, 11, 6 (protein)
chain 1: DIVMTQSPDSLAVSLGERATINCKSSQSVLYSSNQMNYLAWYQQKPGQPPKLLIYWASTRESGVPDRFSGSGSGTDFTLTISSLQAEDVAVYYCLQYLSSWTFGGGTKLEIKTYSLSSTLTLSKADYEKHKLYACEVTHQGLSSPVTKSFNRGEC
chain 2: QVQLVQSGSELKKPGASVKVSCKASGYTFKNYGMNWVRQAPGQGLEWMGWINTYTGQPIYANDFKGRFVFSLDTSVSTAYLQISSLKAEDTAVYYCARDWGPYWGQGTLVTVSSASTKGPSVFPLAPSSKSTSGGTAALGCLVKDYFPEPVTVSWNSGALTSGVHTFPAVLQSSGLYSLSSVVTVPSSSLGTQTYICNVNHKPSNTKVDKRVEPKSCDK
chain 3: VDLVTVSSASTGGGSGQLGGGGS
chain 4: QVQLQESGPGLVKPSQTLSLTCTVSGGSISTSGMGVGWIRQHPGKCLEWIGHIWWDDDKRYNPALKSRVTISVDTSKNQFSLKLSSVTAADTAVYYCARMELWSYYFDYWGQGTLVTVSSGGGGSGGGGSGGGGSEIVLTQSPATLSLSPGERATLSCSASSSVSYMHWYQQKPGQAPRLLIYDTSKLASGIPARFSGSGSGTDFTLTISSLEPEDVAVYYCFQGSVYPFTFGCGTKLEIKR
chain 5: TRHHHHHH
modifications: Humanized 6.3 VL-Ck; Humanized 6.3 VH-CH1; Peptide Linker; hBU12 dsFv; 6xHis Tag
[1]
  binding to NH2-PEG10,000-NH2: bound to the NH2-PEG10,000-NH2
Raji cells (CD19+)
  directing PEGylated substance to Raji cells: capable of directing PEGylated substance to Raji cells
Raji (CD19+) cells
  effect on cytotoxicity of Doxisome to Raji cells: enhanced cytotoxicity of Doxisome
BSA
  binding to BSA: not to the control BSA protein
A431 (EGFR+) tumor cells
  uptake of PEG-Qdot655 into A431 cells (endocytic vesicles): failed to produce PEG-Qdot655 signals

B2: PEG×TAG72: monovalent BsAb: hE11 anti-PEG Fab fused to anti-TAG72 scFv (example 2.1) (protein)
light: DVVMTQSPLSLPVTLGQPASISCRSSKSIVHSNGNTYLEWFQQRPGQSPRRLIYKVSKRMSGVPDRFSGSGSGTDFTLKISRVEAEDVGVYYCSQGSHVPPTFGGGTKVEIKRTVAAPSVFIFPPSDEQLKSGTASVVCLLNNFYPREAKVQWKVDNALQSGNSQESVTEQDSKDSTYSLSSTLTLSKADYEKHKLYACEVTHQGLSSPVTKSFNRGEC
heavy: QVQLVQSGAEVKKPGASVKVSCKASGYTFTTYTMNWVRQAPGQGLEWMGYIIPSSGYVDYNQKFKGRVTMTRDTSTSTVYMELSSLRSEDTAVYYCVRSLDGYFWFAYWGQGTLVTVSSASTKGPSVFPLAPSSKSTSGGTAALGCLVKDYFPEPVTVSWNSGALTSGVHTFPAVLQSSGLYSLSSVVTVPSSSLGTQTYICNVNHKPSNTKVDKRVVDLVTVSSASTGGGSGQLGGGGSQVQLVQSGAEVKKPGASVKVSCKASGYTFTDHAIHWVRQAPGQCLEWMGYFSPGNDDFKYSQKFQGRVTITADKSASTAYMELSSLRSEDTAVYYCARSWIMQYWGQGTLVTVSSGGGGSGGGGSGGGGSDIVMTQSPDSLAVSLGERATINCKSSQSVLYSSNNKNYLAWYQQKPGQPPKLLIYWASTRESGVPDRFSGSGSGTDFTLTISSLQAEDVAVYYCQQYYSYPLTFGCGTKVEIKTRHHHHHH
[2]
  binding of monovalent BsAb to Jurkat T cells: bound to Jurkat T cells

B3: hcc49 scFv: humanized single-chain antibody fragment against TAG-72 antigen (protein)
scFv: QVQLVQSGAEVKKPGASVKVSCKASGYTFTDHAIHWVRQAPGQCLEWMGYFSPGNDDFKYSQKFQGRVTITADKSASTAYMELSSLRSEDTAVYYCARSWIMQYWGQGTLVTVSSGGGGSGGGGSGGGGSDIVMTQSPDSLAVSLGERATINCKSSQSVLYSSNNKNYLAWYQQKPGQPPKLLIYWASTRESGVPDRFSGSGSGTDFTLTISSLQAEDVAVYYCQQYYSYPLTFGCGTKVEIK
[3]
  binding to mucin: bound to mucin

From US10188742B2, “Bi-specific antibodies and uses thereof” (ACADEMIA SINICA, priority 2014, dated 2019)
